PMC12702194

Target: Fibronectin 1 (FN1) (human (endogenous in C28/I2))
Test: proximity ligation; Duolink in situ PLA on decellularized, fixed matrix of C28/I2 WT cells cultured for 72 h; primary antibodies mouse anti-fibronectin or mouse anti-Col II with rabbit anti-ERp57; controls: matrix of ERp57 KO cells and omitted primary antibodies; some cultures incubated with 10 mM DTT for 15 min at 37°C before decellularization (PLA signal significantly decreased)

Chain of Fibronectin 1 (FN1) (human (endogenous in C28/I2)) (P02751 32-2477): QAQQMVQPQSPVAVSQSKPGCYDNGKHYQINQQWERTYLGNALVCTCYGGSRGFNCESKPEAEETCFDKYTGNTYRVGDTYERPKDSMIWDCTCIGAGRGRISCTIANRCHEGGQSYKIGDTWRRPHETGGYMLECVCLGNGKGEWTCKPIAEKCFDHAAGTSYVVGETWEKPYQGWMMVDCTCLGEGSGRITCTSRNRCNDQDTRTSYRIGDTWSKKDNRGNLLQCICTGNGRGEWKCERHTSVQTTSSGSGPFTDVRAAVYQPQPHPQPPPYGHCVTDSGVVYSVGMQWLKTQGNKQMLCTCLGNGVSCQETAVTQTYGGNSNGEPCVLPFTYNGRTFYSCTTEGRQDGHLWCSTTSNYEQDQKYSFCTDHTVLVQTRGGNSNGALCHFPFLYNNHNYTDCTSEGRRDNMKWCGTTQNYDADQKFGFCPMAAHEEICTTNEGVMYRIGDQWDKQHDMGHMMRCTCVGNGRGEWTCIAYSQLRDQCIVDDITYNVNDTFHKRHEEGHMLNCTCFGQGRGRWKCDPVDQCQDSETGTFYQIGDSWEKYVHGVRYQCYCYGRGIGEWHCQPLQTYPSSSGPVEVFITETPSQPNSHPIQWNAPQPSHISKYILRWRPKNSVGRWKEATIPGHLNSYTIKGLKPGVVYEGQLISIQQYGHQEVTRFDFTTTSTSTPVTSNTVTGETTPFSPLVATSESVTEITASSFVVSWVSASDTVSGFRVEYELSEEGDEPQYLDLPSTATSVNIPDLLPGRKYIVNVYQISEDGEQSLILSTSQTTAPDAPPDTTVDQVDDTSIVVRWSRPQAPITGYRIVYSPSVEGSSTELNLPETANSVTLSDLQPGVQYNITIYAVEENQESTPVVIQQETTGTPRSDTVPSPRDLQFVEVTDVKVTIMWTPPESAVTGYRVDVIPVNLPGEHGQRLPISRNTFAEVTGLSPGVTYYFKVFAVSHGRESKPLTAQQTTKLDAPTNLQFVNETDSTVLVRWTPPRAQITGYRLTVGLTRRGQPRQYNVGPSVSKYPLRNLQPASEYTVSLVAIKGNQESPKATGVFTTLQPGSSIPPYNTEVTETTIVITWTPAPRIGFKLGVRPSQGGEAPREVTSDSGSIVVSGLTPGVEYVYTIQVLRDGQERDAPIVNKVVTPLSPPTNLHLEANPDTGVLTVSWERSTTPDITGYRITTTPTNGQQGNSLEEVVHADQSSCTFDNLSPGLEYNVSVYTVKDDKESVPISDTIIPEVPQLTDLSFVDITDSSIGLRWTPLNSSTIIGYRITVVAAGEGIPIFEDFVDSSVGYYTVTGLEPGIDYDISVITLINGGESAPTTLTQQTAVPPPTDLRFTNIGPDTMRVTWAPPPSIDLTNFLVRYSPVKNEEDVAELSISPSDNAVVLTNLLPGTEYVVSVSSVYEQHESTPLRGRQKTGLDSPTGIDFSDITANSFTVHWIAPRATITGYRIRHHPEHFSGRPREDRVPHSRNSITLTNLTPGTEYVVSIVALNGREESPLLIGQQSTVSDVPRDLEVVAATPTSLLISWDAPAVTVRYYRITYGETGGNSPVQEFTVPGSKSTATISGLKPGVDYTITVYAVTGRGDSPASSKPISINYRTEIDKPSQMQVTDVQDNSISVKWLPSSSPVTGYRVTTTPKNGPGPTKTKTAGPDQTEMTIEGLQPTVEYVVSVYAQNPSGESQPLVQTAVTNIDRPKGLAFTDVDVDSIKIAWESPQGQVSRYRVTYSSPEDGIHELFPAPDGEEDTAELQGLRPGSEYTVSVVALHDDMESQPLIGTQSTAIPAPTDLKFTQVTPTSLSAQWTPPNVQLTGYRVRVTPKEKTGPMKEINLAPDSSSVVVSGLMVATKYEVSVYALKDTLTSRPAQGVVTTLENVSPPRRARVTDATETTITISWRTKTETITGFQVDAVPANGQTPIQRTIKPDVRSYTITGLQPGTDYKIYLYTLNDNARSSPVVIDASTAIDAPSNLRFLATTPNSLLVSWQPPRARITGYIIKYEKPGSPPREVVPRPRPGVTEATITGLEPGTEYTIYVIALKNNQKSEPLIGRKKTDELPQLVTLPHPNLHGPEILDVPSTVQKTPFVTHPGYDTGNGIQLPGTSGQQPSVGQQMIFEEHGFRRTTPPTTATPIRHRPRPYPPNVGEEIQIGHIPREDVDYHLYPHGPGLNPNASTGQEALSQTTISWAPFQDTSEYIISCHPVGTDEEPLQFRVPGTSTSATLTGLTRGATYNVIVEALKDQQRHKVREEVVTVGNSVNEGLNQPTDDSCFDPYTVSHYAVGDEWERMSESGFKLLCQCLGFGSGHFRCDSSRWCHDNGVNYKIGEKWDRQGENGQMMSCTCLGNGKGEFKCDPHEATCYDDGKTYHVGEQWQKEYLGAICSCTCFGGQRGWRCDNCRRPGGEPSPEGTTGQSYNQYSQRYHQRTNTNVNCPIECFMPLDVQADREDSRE

PLA mean staining intensity: 0.284
Substance: endoplasmic reticulum protein 57 (ERp57) (from UniProt P30101 25-505) (enzyme)
